Data taken from the supplement of paper PMC12764529.
± gives the half width of the 95% confidence interval.

Legend:
[1] = folding stability dG unfold from chymotrypsin proteolysis; higher = more stable
In short: (§1)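 Mini-proteins designed to be under 80 residues and free of cysteine were carried in a PA-tagged cDNA display construct and digested with trypsin and with chymotrypsin. Each protease was applied at 11 threefold-diluted concentrations, alongside a no-protease condition, before sequencing. K50 came from Bayesian fitting of the sequencing counts, and unfolding free energy was obtained by comparing it with a sequence-predicted unfolded-state K50 and a shared folded-state K50, for each protease separately or for both together. Designs were retained only if their AlphaFold2 dimer inter-PAE exceeded 15.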

[2] = folding stability dG unfold from trypsin proteolysis; higher = more stable
In short: as §1

[3] = folding stability dG unfold (combined trypsin and chymotrypsin); higher = more stable
In short: as §1

Row | Sequence | folding stability dG unfold [1] | folding stability dG unfold [2] | folding stability dG unfold [3]
1 | SAGGSAGGSAEKKKVTIRIVVKPEDVEEILKAIEELLPPGAKATIKVFDKNGELIAEFEFEVSAGGSAGGSA [r18_188_TrROS_Hall] | 3.09 ± 0.25 kcal/mol | 2.5 ± 0.17 kcal/mol | 2.86 ± 0.12 kcal/mol
2 | SAGGSAGGSDPVPIVITYPDGSTSTTLEPDKIYITYPSKGLKYVVPIDLSTNKISFSLESSLPSAGGSAGGS [r12_539_JUSTAS] | -0.0759 ± 0.11 kcal/mol | -0.699 ± 0.12 kcal/mol | -0.254 ± 0.08 kcal/mol
3 | SAGDLLKNLPPEIVEVEEVKTLPDGTKYFLVKVKKDGKERVFVIELDKNGKIVKIEEMSKEEAEKLLKKSAG [r5_73_TrROS_Hall] | 3.74 ± 0.097 kcal/mol | 1.84 ± 0.088 kcal/mol | 3.32 ± 0.17 kcal/mol
4 | SAGGKKKKKKKIEKKVKTVTIKIKAKTKEEAKKALEELLKKKGLEVEIVKIEYDPETKEITVTVKVKPSAGG [r13_567_TrROS_Hall] | 2.32 ± 0.12 kcal/mol | 1.92 ± 0.044 kcal/mol | 2.14 ± 0.085 kcal/mol
5 | SAGGSAGGSSELKVVELTTEPGKYLVVTLPDGTVVVLPPGAPLPLGDGEPATVEVVPEEELRSSAGGSAGGS [r12_39_JUSTAS] | 0.85 ± 0.022 kcal/mol | 0.413 ± 0.041 kcal/mol | 0.705 ± 0.046 kcal/mol
6 | SAGGSAGGMKIRIEIEMTPEEVEALREELEKAGYRVEVERREDGRVRVTIEIELPPPPPPPEEESAGGSAGG [r6_8_TrROS_Hall] | 3.75 ± 0.13 kcal/mol | 3.08 ± 0.24 kcal/mol | 3.46 ± 0.2 kcal/mol
7 | SAGWRMTIWVQYELPPGMPPERAKEAVRDIIRDIMRRFGLPMPPGMKIDIEPVEPSNDYVYYKVTIEFPSAG [r14_735_TrROS] | 5.52 ± 0.15 kcal/mol | 4.37 ± 0.26 kcal/mol | 5.22 ± 0.33 kcal/mol
8 | SAGGSAGGSAGSTITIRINGKTYTIEVDESEEEALERIRELARALLPEGEVEVTVERREPSAGGSAGGSAGG [r11_1028_TrROS_Hall] | 3.374 ± 0.026 kcal/mol | 2.2 ± 0.047 kcal/mol | 2.98 ± 0.079 kcal/mol
9 | SAGTADELVERAKEFARELAEEFGYKVDVDVKVQPTPDYYTIKVTVTFRNPGGMTWRFPFTITIPKEQFSAG [r5_609_TrROS] | 4.91 ± 0.14 kcal/mol | 3.45 ± 0.15 kcal/mol | 4.29 ± 0.16 kcal/mol
10 | SAGGPGWRTINIPVWFKPGDSLDEIEEKARELVDPIADRNGLDIEVNIEVERDPDGYYRFNVQITVPSAGGS [r16_279_TrROS] | 2.34 ± 0.071 kcal/mol | 1.27 ± 0.097 kcal/mol | 1.96 ± 0.13 kcal/mol
11 | SMREITVTLPSEELAEELREAAEALGVEEVEVSRLPEDRLEIRIKTNSDPESVIQALKDLAEKRGLEVAASA [r9_1003_JUSTAS] | 1.66 ± 0.086 kcal/mol | 1.73 ± 0.074 kcal/mol | 1.61 ± 0.085 kcal/mol
12 | SAGGWYERIKEWAKDKGLKVDIEPTSFDPPNGWMPFEIEFPNGKKIDITFPDSPDQMLWMIRNMIKNSAGGS [r16_153_TrROS] | 2.16 ± 0.09 kcal/mol | 1.63 ± 0.057 kcal/mol | 2.05 ± 0.15 kcal/mol
13 | SAGGMIKSEKLIKSPENETIKVETTIILDENGNPKSVKKKITVYKNGKPVKEMEISSIGNEIEIKKPSAGGS [r16_35_JUSTAS] | 1.48 ± 0.15 kcal/mol | -0.308 ± 0.65 kcal/mol | 1.14 ± 0.21 kcal/mol
14 | SAGGSASIEELLKEIIDNLKPGEKYKITIEVDGEEKTFTFTNKNGEKIEIVVKDGKIVSIKIEKLPSAGGSA [r15_175_TrROS_Hall] | 4.21 ± 0.12 kcal/mol | 2.5 ± 0.4 kcal/mol | 3.97 ± 0.3 kcal/mol
15 | SAGSPVTVPLTLTLTYTVNNPEGPEVLKTETIPLPLVFSPEELDDEETKALLQALVDALPDDVSEVVLESAG [r5_849_JUSTAS] | 1.43 ± 0.079 kcal/mol | 1.32 ± 0.02 kcal/mol | 1.38 ± 0.046 kcal/mol
16 | SAGGIDLDNMSPEEAKERARDTVREFRELFPPEKKYKFKIKVTIDYRDPGNGRQRTVTVEAPIEFTPDSAGG [r13_385_TrROS] | 0.862 ± 0.28 kcal/mol | 0.636 ± 0.12 kcal/mol | 0.753 ± 0.24 kcal/mol
17 | SPVPLDVPPGSRAVLVFRFPDGSRAVAVFDPVTGKATVTFYPPDGSKVTRTFDGPDLADLPPGVERIAPLSA [r9_1110_TrMRF] | 2.7 ± 0.12 kcal/mol | 1.77 ± 0.11 kcal/mol | 2.34 ± 0.14 kcal/mol
